Data from patent US20110130836A1, “Compositions and Methods for Use of Scar Tissue in Repair of Weight Bearing Surfaces” (LANX, INC., priority 2008, published 2011).

Target: T1, BMP-2 (Homo sapiens, UniProt P12643)
T1 sequence (P12643 283-396): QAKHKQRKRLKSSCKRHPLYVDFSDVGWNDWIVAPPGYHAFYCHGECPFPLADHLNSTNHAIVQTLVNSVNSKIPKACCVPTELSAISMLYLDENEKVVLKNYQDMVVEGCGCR
Assay: Inhibition of BMP-2 effects by SPP-24
Details: 50-fold (w/w) excess of SPP-24
From the text: Lyophilized SPP-24 is ground into a fine powder and combined with DBM. […] However, concentrations of growth factors in DBM vary by lot and preparation methodology. For example, Wildemann et al. reports BMP-2 concentrations of 0.004 g BMP-2 per gram total protein. Wildemann et al. (2007) Quantification of various growth factors in different demineralized bone matrix preparations. J. of Biomed. Mat. Res. Part A. 81A(2): 437-442. Thus, SPP to DBM ratios range from about 1:10 to about 2:1, for example, about 1:10, about 1:8, about 1:7, about 1:6, about 1:5, about 1:4, about 1:3, about 1:2, about 1:1, and about 2:1.

effects of BMP-2: completely ablates
B1: secreted phosphoprotein 24 (protein, UniProt Q13103 30-211, looked up)
Secreted phosphoprotein 24: FPVYDYDPSSLRDALSASVVKVNSQSLSPYLFRAFRSSLKRVEVLDENNLVMNLEFSIRETTCRKDSGEDPATCAFQRDYYVSTAVCRSTVKVSAQQVQGVHARCSWSSSTSESYSSEEMIFGDMLGSHKWRNNYLFGLISDESISEQFYDRSLGIMRRVLPPGNRRYPNHRHRARINTDFE
notes: BMP-2 antagonist
